Measured values reported in patent US6432920B1, “Nck SH3 binding peptides” (Cytogen Corporation, priority 1994, dated 2002).

What was measured:
Yes SH3 = target: T1, Yes SH3 (Homo sapiens, UniProt P07947); assay: Phage clone binding to immobilized GST-SH3 (anti-phage ELISA); conditions: FIG. 14
T1 construct: a construct expressing the SH3 domain of Yes was obtained from Dr. Marius Sudol (Rockefeller University); made in house; host or cells: bacteria (pGEX vector)
Protocol: Indeed, the ability of isolated phage clones to bind to several SH3 domains derived from a variety of different proteins can be investigated by the manner described above. GST-SH3 fusion proteins containing SH3 domains from a variety of different proteins are bound to microliter wells. An aliquot of the aforementioned phage stocks (50 μL) is introduced into wells containing the different GST-SH3 fusion proteins. […] From these experiments, the relative specificity of different Src SH3 binding clones for SH3 domains derived from other proteins is determined.
To evaluate the binding of isolates to various targets proteins, enzyme-linked-immuno-assays (ELISA) were also performed. […] Plates are read with a plate reader (Molecular Devices, Menlo Park, Calif.) at 405 nm wavelength.
Library screens were performed as described in Sparks, A., B., et al., in Methods in Enzymology, (1995) 255:498-509. […] The wells were washed five times with PBS+0.1% Tween 20, and bound phage were detected by anti-phage ELISA according to the manufacturer's instructions (Pharmacia, Piscataway, N.J.). […]
To explore further the capacity of SH3 domains to discriminate between different SH3 ligands, we investigated the binding of phage expressing various peptide ligands to a panel of SH3 domains. […] The wells were washed several times, and bound phage were detected with an anti-phage antibody (see FIG. 14). […]

Src SH3-GST [1] = target: T2, Src SH3-GST (Homo sapiens, UniProt P12931); assay: Phage clone binding to immobilized GST-SH3 (elution titering / anti-phage ELISA); conditions: FIG. 14
T2 construct: Bacterially expressed Src SH3 glutathione-S-transferase (Src-GST) fusion protein was purified from bacterial lysates; made in house; host or cells: bacteria (pGEX vector)
Protocol: Library screens were performed as previously described. Kay, B. K., et al., in Gene (1993) 128:59-65. Briefly, 1'10^11 pfu TSAR 9, TSAR 12, or R8C phage in Buffer A were incubated in a Src SH3-GST-coated well for 2 hours. The wells were washed, and bound phage were eluted with 100 μL 50 mM glycine-HCl (pH 2.2), transferred to a new well, and neutralized with […] 200 mM NaHPO4 (pH 7.0). Recovered phage were used to infect 1×10^9 DH5αF′ E. coli cells in 20 mL 2×YT; the infected cells were grown overnight, resulting in a 1000- to 10,000-fold amplification of phage titer. Amplified phage were panned twice more, as above, excepting the amplification step. Binding phage recovered after the third round of panning were plated at a low density on a lawn of DH5αF′ E. coli cells to yield isolated plaques for clonal analysis. […]
Indeed, the ability of isolated phage clones to bind to several SH3 domains derived from a variety of different proteins can be investigated by the manner described above. […] From these experiments, the relative specificity of different Src SH3 binding clones for SH3 domains derived from other proteins is determined.
To evaluate the binding of isolates to various targets proteins, enzyme-linked-immuno-assays (ELISA) were also performed. […] Plates are read with a plate reader (Molecular Devices, Menlo Park, Calif.) at 405 nm wavelength. […]

Src SH3-GST [2] = target: T2, Src SH3-GST; assay: Biotinylated synthetic peptide binding ELISA to immobilized Src SH3-GST; conditions: not tested

T1 sequence (P07947 91-152 limits assumed): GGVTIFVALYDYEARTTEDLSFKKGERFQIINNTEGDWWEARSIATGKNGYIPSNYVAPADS

surmised binding to a variety of SH3 domains (Src SH3-GST [2])	Sequence	cross-reactivity of Yes SH3 domain with phage clone selected with another SH3 domain (Yes SH3)	cross-reactivity of Src SH3 domain with phage clone selected with another SH3 domain (Src SH3-GST [1])
	MPPPVPPRPPGTL	cross-reacted	cross-reacted
strong but generic binding	RSTPAPPVPPRTTR		
